From patent publication US20250223336A1

Columns and labels:
[1] = molecular target: wild type SARS-COV-2 spike receptor binding domain (RBD), 6His-Strep-TEV-RBD construct, refolded from E. coli (SARS-COV-2) (UniProt P0DTC2)
[2] = molecular target: SARS-COV-2 spike protein on virus-like particles (VLPs) (SARS-COV-2) (UniProt P0DTC2); assay: cell-based or functional assay

Substance: LCB3 de novo designed miniprotein (from Cao et al., synthesised through recombinant expression in E. coli) (designed binder)
- Kd [1]: 926 nM
- Response Amplitude [1]: 73.5
- reduction in FITC signal (VLP binding to A549 cells) [2]: 84%
